This note sets out measurements from patent US20240424125A1.

Test [1] concerns the target human FRα on cells (human) (UniProt P15328). Description: flow cytometry competition on H2110 cells; competitor: Mirvetuximab; first of two values. Background: A flow cytometer gives signals particle by particle.
Test [2] has the same target. Description: flow cytometry competition on H2110 cells; competitor: v23924; second of two values.
Test [3] has the same target. Description: flow cytometry competition on H2110 cells; competitor: Farletuzumab (self); first of two values.
Test [4] has the same target. Description: flow cytometry competition on H2110 cells; competitor: Mirvetuximab; second of two values.
Test [5] shares this target. Description: flow cytometry competition on H2110 cells; competitor: v23924; first of two values.
Test [6] has the same target. Description: flow cytometry competition on H2110 cells; competitor: Farletuzumab (self); second of two values.
The target is the same in test [7]. Description: flow cytometry competition on H2110 cells; competitor: Farletuzumab; first of two values.
Test [8] shares this target. Kind of test: flow cytometry competition on H2110 cells; competitor: Mirvetuximab (self); first of two values.
Test [9] has the same target. Description: flow cytometry competition on H2110 cells; competitor: Mirvetuximab (self); second of two values.
Test [10] has the same target. Kind of test: flow cytometry competition on H2110 cells; competitor: Farletuzumab; second of two values.

Sequence of human FRα on cells (human) (P15328 25-234 limits assumed): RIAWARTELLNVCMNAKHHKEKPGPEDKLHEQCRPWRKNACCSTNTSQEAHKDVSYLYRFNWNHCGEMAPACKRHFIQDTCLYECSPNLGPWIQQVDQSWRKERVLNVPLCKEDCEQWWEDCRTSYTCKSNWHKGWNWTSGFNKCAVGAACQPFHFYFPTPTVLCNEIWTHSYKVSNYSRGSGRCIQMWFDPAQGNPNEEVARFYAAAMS

B1: farletuzumab (v31629) (antibody, part only; not given: constant regions, V domains shown, not shown: another chain or arm of the molecule)
VH: EVQLVESGGGVVQPGRSLRLSCSASGFTFSGYGLSWVRQAPGKGLEWVAMISSGGSYTYYADSVKGRFAISRDNAKNTLFLQMDSLRPEDTGVYFCARHGDDPAWFAYWGQGTPVTVSS
VL: DIQLTQSPSSLSASVGDRVTITCSVSSSISSNNLHWYQQKPGKAPKPWIYGTSNLASGVPSRFSGSGSGTDYTFTISSLQPEDIATYYCQQWSSYPYMYTFGQGTKVEIK
In the case of B1, the % Competition Binding in test [1] came to 91%; in test [2], 72%; in test [3], 98%; in test [4] it was 75%; in test [5], 99%; in test [6], 100%.

B2: mirvetuximab (v17716) (antibody, part only; not given: constant regions, V domains shown, not shown: another chain or arm of the molecule)
VH: QVQLVQSGAEVVKPGASVKISCKASGYTFTGYFMNWVKQSPGQSLEWIGRIHPYDGDTFYNQKFQGKATLTVDKSSNTAHMELLSLTSEDFAVYYCTRYDGSRAMDYWGQGTTVTVSS
VL: DIVLTQSPLSLAVSLGQPAIISCKASQSVSFAGTSLMHWYHQKPGQQPRLLIYRASNLEAGVPDRFSGSGSKTDFTLTISPVEAEDAATYYCQQSREYPYTFGGGTKLEIK
B2: the % Competition Binding was 7% in [2]; 99% in test [7]; 100% in test [8]; 98% in test [9]; 13% in test [5]; 100% in test [10].
